Consider two molecules from paper PMC10354202.

Positions count from the first letter of the chain named. Names may count otherwise.

The test has as its target T1, (Ig32)2-(R3^IVVI)-(Ig32)2 polyprotein, talin R3 domain with the IVVI mutation.
T1 chain: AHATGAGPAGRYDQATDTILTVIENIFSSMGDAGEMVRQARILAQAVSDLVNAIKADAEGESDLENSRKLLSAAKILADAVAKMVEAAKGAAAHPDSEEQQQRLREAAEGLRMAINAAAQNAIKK
Briefly: magnetic tweezers. The settings on record: chain shown with the change; for other: average unbinding time at 40 pN: parent: est. 9 s, read off a plot.

B1: full-length human vinculin, wild type, P18206-2 K944A; R945A; D1013A; E1015A; E986A (protein)
chain: MPVFHTRTIESILEPVAQQISHLVIMHEEGEVDGKAIPDLTAPVAAVQAAVSNLVRVGKETVQTTEDQILKRDMPPAFIKVENACTKLVQAAQMLQSDPYSVPARDYLIDGSRGILSGTSDLLLTFDEAEVRKIIRVCKGILEYLTVAEVVETMEDLVTYTKNLGPGMTKMAKMIDERQQELTHQEHRVMLVNSMNTVKELLPVLISAMKIFVTTKNSKNQGIEEALKNRNFTVEKMSAEINEIIRVLQLTSWDEDAWASKDTEAMKRALASIDSKLNQAKGWLRDPSASPGDAGEQAIRQILDEAGKVGELCAGKERREILGTCKMLGQMTDQVADLRARGQGSSPVAMQKAQQVSQGLDVLTAKVENAARKLEAMTNSKQSIAKKIDAAQNWLADPNGGPEGEEQIRGALAEARKIAELCDDPKERDDILRSLGEISALTSKLADLRRQGKGDSPEARALAKQVATALQNLQTKTNRAVANSRPAKAAVHLEGKIEQAQRWIDNPTVDDRGVGQAAIRGLVAEGHRLANVMMGPYRQDLLAKCDRVDQLTAQLADLAARGEGESPQARALASQLQDSLKDLKARMQEAMTQEVSDVFSDTTTPIKLLAVAATAPPDAPNREEVFDERAANFENHSGKLGATAEKAAAVGTANKSTVEGIQASVKTARELTPQVVSAARILLRNPGNQAAYEHFETMKNQWIDNVEKMTGLVDEAIDTKSLLDASEEAIKKDLDKCKVAMANIQPQMLVAGATSIARRANRILLVAKREVENSEDPKFREAVKAASDELSKTISPMVMDAKAVAGNISDPGLQKSFLDSGYRILGAVAKVREAFQPQEPDFPPPPPDLEQLRLTDELAPPKPPLPEGEVPPPRPPPPEEKDEEFPEQKAGEVINQPMMMAARQLHDEARKWSSKGNDIIAAAKRMALLMAEMSRLVRGGSGTAAALIQCAKDIAKASDEVTRLAKEVAKQCTDKRIRTNLLQVCARIPTISTQLKILSTVKATMLGRTNISAEASEQATEMLVHNAQNLMQSVKETVREAEAASIKIRTDAGFTLRWVRKTPWYQ
For the molecule B1, the other: unbinding time (tUb) at 40 pN, peak of square-root histogram is 3.4 s and the other: average unbinding time at 40 pN was determined as 18 s.

B2: full-length human vinculin, wild type, P18206-2 K944A; R945A; D1013A; E1015A (protein)
chain: B1 chain with A986E
For the molecule B2, the other: unbinding time (tUb) at 40 pN, peak of square-root histogram stood at 4 s and the other: average unbinding time at 40 pN was 27 s.
